The values that follow come from US20230012273A1 (Boehringer Ingelheim, published 2023).

Numbering of substitutions follows the chain as printed.

Assay [1] has as its target T1, full-length human SIRPαV1 (NP_542970.1) on cells (human, UniProt P78324 31-504).
T1 construct: one molecule for CHO-K1 and Expi-CHO transfectants (NP_542970.1) and for endogenous V1 on U-937 cells and on CD14+ monocytes of V1/V1 donors; also called CHO-hSIRPαV1; αV1 WT
The experiment in a line: flow cytometry, CHO-K1 cells. As to the method: Antibody binding to cells expressing SIRPα is evaluated by flow cytometry. CHO-K1 parental cells (negative control), CHO-K1 cells expressing full-length human SIRPαV1 (NP_542970.1) or CHO-K1 cells expressing full-length human SIRPαV2 (CAA71403.1) are blocked with donkey IgG and incubated on ice with increasing concentrations of antibodies for 60 minutes, washed and stained with AF647-conjugated donkey F(ab′)₂ anti-human IgG secondary reagent. Cells are washed, fixed, and analyzed by flow cytometry. Median fluorescent intensity is determined and used as a measure of antibody binding.

Assay [2] has as its target T1, full-length human SIRPαV1 (NP_542970.1) …. The experiment in a line: flow cytometry, competition with CD47 tetramer, CHO-K1 cells. Here is the method: (§1) Cells are washed, fixed, and analyzed by flow cytometry. Median fluorescent intensity is determined and used as a measure of CD47 binding.
Assay [3] has as its target T2, full-length human SIRPαV2 (CAA71403.1) on cells (human, UniProt P78324 31-504).
T2 construct: one molecule for CHO-K1 and Expi-CHO transfectants (CAA71403.1) and for endogenous V2 on THP-1 cells and on CD14+ monocytes of V2/V2 donors; also called CHO-hSIRPαV2; αV2 WT
Described as above. As to the method:
as §1

Assay [4] concerns the target T2, full-length human SIRPαV2 (CAA71403.1) …. The experiment in a line: flow cytometry, competition with CD47 tetramer, monocytes V2V2. Here is the method:
Cells are washed, fixed, and analyzed by flow cytometry. Median fluorescent intensity of CD14+gated population is determined and used as a measure of CD47 binding.

The target in assay [5] is T3, cynomolgus SIRPβ1v3 extracellular domain + His-tag (XP_005568593) (cynomolgus monkey).
T3 construct: also called Cyno SIRPβ1v3; cynoSIRPβ1v3
T3 chain: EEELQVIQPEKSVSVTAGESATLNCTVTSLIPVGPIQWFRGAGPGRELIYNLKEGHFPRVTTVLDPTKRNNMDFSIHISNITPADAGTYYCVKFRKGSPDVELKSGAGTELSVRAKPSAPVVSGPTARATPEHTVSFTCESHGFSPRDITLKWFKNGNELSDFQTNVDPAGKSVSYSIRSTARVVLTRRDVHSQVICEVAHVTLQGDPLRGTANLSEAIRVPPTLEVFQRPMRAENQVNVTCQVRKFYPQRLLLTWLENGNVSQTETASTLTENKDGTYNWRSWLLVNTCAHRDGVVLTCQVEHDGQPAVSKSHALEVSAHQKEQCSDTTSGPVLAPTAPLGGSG
Nature of the assay: SPR, Ab captured, ECD-His analyte. An outline of the steps:
(§2)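 In HBS-EP+ (1×), captured antibodies are exposed to a twofold concentration series of SIRP extracellular domain carrying a His tag, using 300 s contact at 30 μl/min and a 600 s dissociation window.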

The target in assay [6] is T4, cynomolgus SIRPγ extracellular domain + His-tag (XP_005568591) (cynomolgus monkey, UniProt Q9P1W8 29-359 (human entry)).
T4 construct: also called Cyno SIRPγ; cynoSIRPγ
T4 chain: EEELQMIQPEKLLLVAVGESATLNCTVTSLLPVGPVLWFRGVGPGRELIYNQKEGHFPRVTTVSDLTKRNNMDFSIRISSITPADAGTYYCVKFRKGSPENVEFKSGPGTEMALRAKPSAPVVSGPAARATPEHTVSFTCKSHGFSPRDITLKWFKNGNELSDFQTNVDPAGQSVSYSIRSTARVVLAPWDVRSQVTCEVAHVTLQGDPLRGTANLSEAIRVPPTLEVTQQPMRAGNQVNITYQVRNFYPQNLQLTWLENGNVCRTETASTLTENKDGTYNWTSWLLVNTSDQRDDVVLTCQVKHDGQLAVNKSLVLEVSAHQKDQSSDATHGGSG
The experiment in a line: SPR, Ab captured, ECD-His analyte. An outline of the steps: as §2

The target in assay [7] is T5, cynomolgus SIRPβ1 (XP_005568598) extracellular domain + His-tag (cynomolgus monkey).
T5 construct: SPR analyte; also called Cyno SIRPβ1 XP_005568598; cynoSIRPβ1; not shown: His-tag
T5 chain: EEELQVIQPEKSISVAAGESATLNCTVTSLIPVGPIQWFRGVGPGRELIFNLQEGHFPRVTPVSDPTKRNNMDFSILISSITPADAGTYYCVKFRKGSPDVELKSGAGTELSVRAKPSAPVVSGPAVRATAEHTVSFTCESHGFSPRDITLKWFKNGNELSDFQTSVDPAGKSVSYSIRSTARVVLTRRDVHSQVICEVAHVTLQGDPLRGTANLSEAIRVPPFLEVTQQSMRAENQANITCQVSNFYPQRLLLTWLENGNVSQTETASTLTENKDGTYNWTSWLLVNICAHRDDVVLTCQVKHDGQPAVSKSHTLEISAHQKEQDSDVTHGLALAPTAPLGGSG
Nature of the assay: SPR. An outline of the steps:
as §2

Assay [8] addresses T6, cynomolgus SIRPγ (XP_005568591) extracellular domain + His-tag (cynomolgus monkey, UniProt Q9P1W8 29-359 (human entry)).
T6 construct: SPR analyte; also called Cyno SIRPγ XP_005568591; cynoSIRPγ; not shown: His-tag
T6 chain: T4 chain
Nature of the assay: SPR. An outline of the steps:
as §2

For assay [9], the target named is T7, full-length human SIRPγ N→D on Expi-CHO cells (human, UniProt Q9P1W8 29-387).
T7 construct: the entry already carries the change (PENV to PEDV)
The experiment in a line: flow cytometry, Expi-CHO cells expressing full-length human SIRPγ N→D. As to the method:
Expi-CHO parental cells are transduced with lentiviruses containing either full-length wild-type human SIRPγ ([…]) or full-length human SIRPγ with amino acid point mutations (Table 64) and sorted to achieve matching expression levels. These cells are blocked with donkey IgG and incubated on ice with increasing concentrations of antibodies for 60 minutes, washed and stained with AF647-conjugated donkey F(ab′)₂ anti-human IgG antibodies. Stained cells are washed, fixed, and analyzed by flow cytometry. Median fluorescent intensity is determined and used as a measure of antibody binding.

B1: Antibody C (antibody, human IgG1, kappa, L234A L235A, V domains shown)
VH: EVQLVESGGGLVQPGGSLRLSCAASGFTFSSYDMHWVRQATGKGLEWVSVIGIAGDTYYPGSVKGRFTISRENAKNSLYLQMNSLRVGDTAVYYCARGGSWDDAFDIWGQGTMVTVSS
VL: DIQMTQSPSSLSASIGDKVTITCRASQDINNYLAWFQQKPGKAPKSLIYTASSLQSGVPSKFSGSGSGTDFTLTISSLQPEDFATYYCQQYVSYPYTFGQGTKLEIKR
In assay [1], B1 gave an EC50 of 1 nM. For the same molecule, the IC50 in assay [2] amounted to 0.7 nM; in assay [3] it was 0.3 nM; in assay [4] it was 0.05 nM.

B2: Antibody D (antibody, human IgG1, kappa, L234A L235A, V domains shown)
VH: B1 VH with Y32F, A40P, V50T, Y59F, V87A, S100N, F105L
VL: B1 VL with I15V, K18R, V92N, S93T
Regarding B2, in [1], the midpoint of the response, the EC50, lay at 0.7 nM. Moreover, the half-inhibitory concentration (IC50) in assay [2] came to 0.6 nM; in [3], 0.3 nM; in assay [4], 0.05 nM.

B3: Anti-SIRPα antibody KWAR23 (antibody, V domains shown)
VH: EVQLQQSGAELVKPGASVKLSCTASGFNIKDYYIHWVQQRTEQGLEWIGRIDPEDGETKYAPKFQDKATITADTSSNTAYLHLSSLTSEDTAVYYCARWGAYWGQGTLVTVSS
VL: QIVLTQSPAIMSASPGEKVTLTCSASSSVSSSYLYWYQQKPGSSPKLWIYSTSNLASGVPARFSGSGSGTSYSLTISSMEAEDAASYFCHQWSSYPRTFGAGTKLELK
B3 gave an EC50 in assay [1] of 1 nM. Besides, the IC50 in assay [2] was 0.9 nM; in assay [3] it was 0.6 nM; in [4], 0.11 nM.

B4: Antibody A (antibody, human IgG1, kappa, L234A L235A)
heavy: not shown
light: DIQMTQSPSSLSASVGDRVTITCRASQDINNYLAWFQQKPGKAPKSLIYTASSLHSGVPSKFSGSGSGTDFTLTISSLQPEDFATYYCQQYVSYPYTFGQGTKLEIKRTVAAPSVFIFPPSDEQLKSGTASVVCLLNNFYPREAKVQWKVDNALQSGNSQESVTEQDSKDSTYSLSSTLTLSKADYEKHKVYACEVTHQGLSSPVTKSFNRGEC
On to B4, for which the Kd in assay [5] was determined as 246 nM. In addition, the binding result in assay [6] was “no binding (tested: 1000 nM)”.

B5: Antibody A10 (antibody, human IgG1, kappa, L234A L235A)
heavy: not shown
light: B4 light
For B5, the dissociation constant Kd in [5] was found to be 271 nM. For the same molecule, in assay [6], the binding result is given as “no binding (tested: 1000 nM)”.

B6: Antibody B (antibody, human IgG1, kappa, L234A L235A, V domains shown)
VH: QVQLVQSGAEVKKPGASVKVSCKASGYTFTGNYMHWVRQAPGQGLEWMGWINPNSGGTNYAQKFQGRVTMTRDTSISTAYMELSRLRSDDTAVYYCVSGSGWYENYYYYGMDVWGQGTTVTVSS
VL: DIQMTQSPSSVSASVGDRVTITCRASQGISSWLAWYQQKPGKAPKLLIYAESSLQSGVPSRFSGSGSGTDFTLTISSLQPEDFATYYCQQANSFPLTFGGGTKVEIKR
In assay [1], B6 displayed an EC50 of 12 nM. In addition, the half-inhibitory concentration (IC50) amounted to 5.6 nM in [2], 6 nM in assay [3] and 4.6 nM in assay [4].

B7: Antibody E (antibody, human IgG1, kappa, L234A L235A)
heavy: not shown
light: DIVMTQSPLSLPVTPGEPASISCKSSQSLLYSNGYNYLDWYLQRPGQSPQLLIYLGSNRASGVPDRFSGSGSGTDFTLKISRVEAEDVGVFYCMQALQTPLTFGGGTKVEIKRTVAAPSVFIFPPSDEQLKSGTASVVCLLNNFYPREAKVQWKVDNALQSGNSQESVTEQDSKDSTYSLSSTLTLSKADYEKHKVYACEVTHQGLSSPVTKSFNRGEC
Consider B7, for which the binding result is “no binding (tested: 1000 nM)” in assay [7], “no binding (tested: 1000 nM)” in assay [8] and “no binding (tested: about 67 nM)” in [9]. The molecule further had an EC50 in assay [1] of 2 nM. The molecule also gave an IC50 in assay [2] of 0.7 nM.

B8: Antibody E22 (antibody, human IgG1, kappa, L234A L235A, V domains shown)
VH: QVQLQESGPGLVKPSETLSLTCTVSGGSIRDYYWSWIRQPPGKGLEWIGFIYYNGRTFYQSSLKSRVTISLDTSKNQFSLKMTSVTAADTAVYYCARVRAYSGIGLDGTDVWGQGTTVTVSS
VL: DIVMTQSPLSLPVTPGEPASISCRSSQSLLYSTGYTYLDWYLQRPGQSPQLLIYGGSSRASGVPDRFSGSGSGTDFTLKISRVEAEDVGVFYCGQALQTPLTFGQGTKVEIKR
Take B8: the binding result in assay [7] was “no binding (tested: 1000 nM)”; in assay [8], “no binding (tested: 1000 nM)”; in assay [9], “no binding (tested: about 67 nM)”. In assay [4], this molecule showed an IC50 of 0.3 nM.
